{"source": "the DeepSol protein solubility set"}
{"assay": "soluble on expression in E. coli; label from the status in PepcDB or PDB records"}
{"sequence": "MSLDTTGITPTSIRIGSTSPQSGPVSAYGVQARCQAAYFKMINDRGGIAGRKIDFIYYDDAFNPAKTVEQTRKLVESDEVALLFSNLGTATNSAIVKYANAKKIPHLFLSVNGDKWSDYKAHPWSIGFAPSARTEAAIFVKHMLAEKPDAKFAVLYQNDDFGKDFVLGAKDVLGERESRQLVTISHETSDPTIDSQILQLRAAAPDALISGTTAKFTAQAIRKVAETRWQVRHYITGGSSSYAGTIGPAGPENAVGVISSAYLKDVADPAWKDDQGIKDFLAFMQSYFPEGNKDDFYNLYAYTVASALVKVLTQCGDGWTRENIMAQATNLKDVELPTLLPGIRVNTSPTDYRPLTQVQLQKWDGKAWVRFGDVLGAEGHHHHHH", "soluble on expression in E. coli": "soluble"}
{"sequence": "MSLDTVVKVGFAAPLTGPNANYGKDLENGVKMALDDAKAQGVKINGQPVTFQLVAEDDQADPRIGVQVAQKLIDEGVSVVVGHFNSGTTIPASNLYEKAGLPDIDPAATNPTISSRGFKNMFMVISSDAQNAGTAGAYAVETTKAKRIAVIDDRTAFGQGEADEFVKAVKAHGGDIIDREYTTNQATDFKTQLTNLKAKNPDLIFVGALNPQAAGIMKQMNQLGIKAQYVGGGGVKDIDFIKLAGDVSEGAMAWEYGRPLDSTPVGAKFAERFKQKFGEDVLSYAPFGYDAAWAAIKAMQAANSTKPDDYRSKLQSISFEGITGHIEFNANGSLKNGSSTVYQVKNGQWVTVKTVSGEGHHHHHH", "soluble on expression in E. coli": "soluble"}
{"sequence": "MSLDVTAKYELIGLMAYPIRHSLSPEMQNKALEKAGLPFTYMAFEVDNDSFPGAIEGLKALKMRGTGVSMPNKQLACEYVDELTPAAKLVGAINTIVNDDGYLRGYNTDGTGHIRAIKESGFDIKGKTMVLLGAGGASTAIGAQGAIEGLKEIKLFNRRDEFFDKALAFAQRVNENTDCVVTVTDLADQQAFAEALASADILTNGTKVGMKPLENESLVNDISLLHPGLLVTECVYNPHMTKLLQQAQQAGCKTIDGYGMLLWQGAEQFTLWTGKDFPLEYVKQVMGFGAEGGSHHHHHH", "soluble on expression in E. coli": "soluble"}
{"sequence": "MSLDWNRLKPTINQKVSAELNRPFAIRGDLGVVWERQKQETGWRSWVPWPHVHAEDIILGNPPDIPEVTMVHLPRVEATLAPLALLTKTVWLPWIKLEKPDARLIRLSEKNNNWTFNLANDDNKDANAKPSAWSFRLDNILFDQGRIAIDDKVSKADLEIFVDPLGKPLPFSEVTGSKGKADKEKVGDYVFGLKAQGRYNGEPLTGTGKIGGMLALRGEGTPFPVQADFRSGNTRVAFDGVVNDPMKMGGVDLRLKFSGDSLGDLYELTGVLLPDTPPFETDGRLVAKIDTEKSSVFDYRGFNGRIGDSDIHGSLVYTTGKPRPKLEGDVESRQLRLADLGPLIGVDSGKGAEKSKRSEQKKGEKSVQPAGKVLPYDRFETDKWDVMDADVRFKGRRIEHGSSLPISDLSTHIILKNADLRLQPLKFGIAGGSIAANIHLEGDKKPMQGRADIQARRLKLKELMPDVELMQKTLGEMNGDAELRGSGNSVAALLGNSNGNLKLLMNDGLVSRNLMEIVGLNVGNYIVGAIFGDDEVRVNCAAANLNIANGVARPQIFAFDTENALINVTGTASFASEQLDLTIDPESKGIRIITLRSPLYVRGTFKNPQAGVKAGPLIARGAVAAALATLVTPAAALLALISPSEGEANQCRTILSQMKKEGHHHHHH", "soluble on expression in E. coli": "soluble"}
{"sequence": "MSLEAVIFDMDGVLMDTEPLYFEAYRRVAESYGKPYTEDLHRRIMGVPEREGLPILMEALEIKDSLENFKKRVHEEKKRVFSELLKENPGVREALEFVKSKRIKLALATSTPQREALERLRRLDLEKYFDVMVFGDQVKNGKPDPEIYLLVLERLNVVPEKVVVFEDSKSGVEAAKSAGIERIYGVVHSLNDGKALLEAGAVALVKPEEILNVLKEVLEGHHHHHH", "soluble on expression in E. coli": "soluble"}
{"sequence": "MSLEDGYKVEVGKNAYLPCSYTLPTSGTLVPMCWGKGFCPWSQCTNELLRTDERNVTYQKSSRYQLKGDLNKGDVSLIIKNVTLDDHGTYCCRIQFPGLMNDKKLELKLDIKAALVPR", "soluble on expression in E. coli": "soluble"}
{"sequence": "MSLEEETYVVFDVETTGLSAVYDTIIELAAVKVKGGEIIDKFEAFANPHRPLSATIIELTGITDDMLQDAPDVVDVIRDFREWIGDDILVAHNASFDMGFLNVAYKKLLEVEKAKNPVIDTLELGRFLYPEFKNHRLNTLCKKFDIELTQHHRAIYDTEATAYLLLKMLKDAAEKGIQYHDELNENMGQSNAYQRSRPYHATLLAVNSTGLKNLFKLVSLSHIHYFYRVPRIPRSQLEKYREGLLIGSACDRGEVFEGMMQKSPEEVEDIASFYDYLEVQPPEVYRHLLELELVRDEKALKEIIANITKLGEKLNKPVVATGNVHYLNDEGHHHHHH", "soluble on expression in E. coli": "not soluble"}
{"sequence": "MSLEEPRGINYVELSTDDLGTLTRQMHQLGFQFIGYHRSKPHVQLWLRGQARIIVSEVTEEAGTTSAPVNGTFLRGIGFEVTDSQSAMDRAALLHAEEVPRDQAHDDEVLRGVFAPDGSEVFFHQFDAATPAWIKEFGHDHDEQVSHIDHVNLAQPSNHYDEAVLFYTSLLALHAQSSQDVPSPSGLVRSQVMSSTDGSVRMPLNVSPQPNAEAVAGRGIGSVVEAYPEHVAVACEDIFQAAATALSRGLDFLPVPQNYYEDLDSRFDLDLEFLQRLQENHVLYDRDEHGEFLHFYTSTIGSVFFEMIERRGDYLGFGAPDAPVRLAAQHRKNSQREGHHHHHH", "soluble on expression in E. coli": "not soluble"}
{"sequence": "MSLEFLNSLSYGISSHEVNNEFKQIFRELLTNHIIKEHKNKYYLNNGFAFGVLDISSKGTGFLQCFDESFKKDLLIENKNLKGANYKDIVAVKLLPLKKKRPSAKVILVLKRANETSLMITKRYGEAVLGMNIKTGLSTALKASQKSLKALPLGTILKIENENNNIIEVLGHIDDESVDEKISLALFNKNNEFSDACIKEALANGDSVDASMYENRMDLRALPFCTIDPIHAKDFDDAIYFDTQKREIYVAIADVSEYVYAYSAIDKEARNRGFSIYFPHIAIPMLPRPLSENICSLKPHLDRLAYCFKITLNHENKVIKEELFEGIINSKRRFNYDEVDEILIQKPDLKELSWLYELFEITKNLRKMRLKNAFEFRTEELRMNLDENLSLKSTVFEKDTPSHNLIEDCMLLANKAAAKLIDIGVFRNHLSADVRKIDKLLNELRELGIDVNFKPNLPELIRDIQALADELNLRAEVDKLIIKAQKKAEYSSVNAGHFGLGFDKYSHFTSPIRRYSDLILHRLLKAKQKNDEKLFNYLLLNIESTCENLSTLEREADKVAFDFMDRKFARWAAKNIGKKFKALVVQNDGVCIAKLDDEIKGADIILYDTRVNLLENVEVQIMEADIVMAKIYAKITQRLIKEENVEGHHHHHH", "soluble on expression in E. coli": "not soluble"}
{"sequence": "MSLEFQLDLIRGEHMEIEKLLEQVNWEKNNGIVPVIVQDEKGEVLTLAYMNKEALRKTLETGIAHYYSRSKGRIRMKGEVSGNIQTVKEIKIDCDNDALLLIVSPKGPACHTGNYSCFYRKLGEPERVLPIDYSLSILKELEEIIKRRKETPVEGSYTSKLFKEGREKIYKKFGEEAIEVLVAEKRERIIYEVADLLYHLLVLLTYNDISLGEVMNELRRRRKEGHHHHHH", "soluble on expression in E. coli": "soluble"}
{"sequence": "MSLEIKPEDTWRLEDIFSTDDAWEKEFQEVKQLLPDAGGFQGKLGDSADKLYEALQYQDHLLERLGRLYSYAHMRYDQDTTNSFYQGLDDRIKNLYSQAASSLAYIVPEILAIDEEKISSFLDEKEELRLYKHSLEEINLQRPHVLSAEAEALLAQASEVLDAPGNTFGMLNNADLEFPSIKDENGEEVEVTHGRYIRFLESDDQRVRRDAFKAVYDTYGKFKNTFSSTLSSNVKKDNFYARVRNYDSARHAALSDNNIPESVYENLVNTVNDNLHLLHRYIKLRKEVLGLEKLHMYDLFTPLVKDVKMEIPYDEAKDYVLKGLEPLGEEYLSVLKEGFENRWVDVHENKGKRSGAYSSGAYGTNPYILMNWQDNVNNLFTLAHEFGHSVHSYYTRKTQPYPYGNYSIFVAEVASTCNEALLNDYLLKTIDDDQKRLYLLNHYLEGFRGTVFRQTMFAEFEHQIHQKAQNNEALTAEALTQDYYELNKKYFGEEDIIIDEEIGLEWSRIPHFYYNYYVYQYATGFSAATALSKQILEEGEPAVERYINFLKAGSSDYPIEVLKKAGVDMTSPAPIADACKVFEEKLNEMEELLNREGHHHHHH", "soluble on expression in E. coli": "soluble"}
{"sequence": "MSLEILTAGPMLTVQDAGRFGLRHMGVSPAGPIDRAAMALANALVGNDPGAAALEFAGPAGRFRCDRPVRFAVAGADCPLRIDARTVSPGESHRLNPGETLTVGVPEGAVWAYLAFSGAIASPEVLGSRATHLRSGVGGRALGAGDRLPLGEDDPEAPCLRPGLRLEAAAPFRETGPIRLILGPQDDHFAPEVIARLTGCDFTVTPQRDRMAMVLGGVELPAERGHDIVSDGTVPGSVQVPGSGTPLVLLAESQTTGGYPKIGTVASVDLARLAQMPVGARFRFALISAREGEDLWIARQAR", "soluble on expression in E. coli": "not soluble"}
